Results taken from PMC6580467.

B1: Podoplanin (PDPN), endogenous on human cancer cell lines (natural protein)
chain: ASTGQPEDDTETTGLEGGVAMPGAEDDVVTPGTSEDRYKSGLTTLVATSVNSVTGIRIEDLPTSESTVHAQEQSPSATASNVATSHSTEKVDGDTQTTVEKDGLSTVTLVGIIVGVLLAIGFIGAIIVVVMRKMSGRYSP
B2: Human podoplanin expressed on CHO cells (CHO/hPDPN) (natural protein)
chain: B1 chain

Target: C-type lectin-like receptor 2 (CLEC-2) on platelets (human (endogenous in platelets of healthy donors)) (UniProt Q9P126)
Sequence of UniProt Q9P126 (Q9P126 whole entry): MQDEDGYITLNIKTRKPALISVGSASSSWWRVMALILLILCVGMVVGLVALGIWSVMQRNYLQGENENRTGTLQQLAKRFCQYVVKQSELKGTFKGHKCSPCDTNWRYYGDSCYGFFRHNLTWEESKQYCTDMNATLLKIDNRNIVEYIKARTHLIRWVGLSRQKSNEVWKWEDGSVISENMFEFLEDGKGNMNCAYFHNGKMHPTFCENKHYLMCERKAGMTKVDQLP

Binder	inhibition by mAb SZ168 (10, 15 μg/mL) of platelet aggregation induced by NCI-H226 cells in human platelet-rich plasma; maximal inhibition ratio [%]	inhibition by mAb SZ168 (15, 20 μg/mL) of platelet aggregation induced by C8161 cells in human platelet-rich plasma; maximal inhibition ratio at 20 μg/mL [%]	inhibition by mAb SZ168 (20, 25 μg/mL) of platelet aggregation induced by CNE-2 cells in human platelet-rich plasma; maximal inhibition ratio at 25 μg/mL [%]	inhibition by mAb SZ168 (10, 15 μg/mL) of platelet aggregation induced by CHO/hPDPN cells in human platelet-rich plasma; maximal inhibition ratio [%]
B1	74.2	73.9	77.1	
B2				72.6
